Measurements taken from ChEMBL document CHEMBL2074072, “Transport of glutathione, glucuronate, and sulfate conjugates by the MRP gene-encoded conjugate export pump” (Cancer Res, 1996).

Substrate: N[C@@H](CCC(=O)N[C@H](CSc1ccc([N+](=O)[O-])cc1[N+](=O)[O-])C(=O)NCC(=O)O)C(=O)O
Test: TP_TRANSPORTER: uptake in membrane vesicle from MRP1-expressing HeLa cells
Type: functional, cell membranes

B1: Multidrug resistance-associated protein 1 (Homo sapiens) (protein)
chain: MALRGFCSADGSDPLWDWNVTWNTSNPDFTKCFQNTVLVWVPCFYLWACFPFYFLYLSRHDRGYIQMTPLNKTKTALGFLLWIVCWADLFYSFWERSRGIFLAPVFLVSPTLLGITMLLATFLIQLERRKGVQSSGIMLTFWLVALVCALAILRSKIMTALKEDAQVDLFRDITFYVYFSLLLIQLVLSCFSDRSPLFSETIHDPNPCPESSASFLSRITFWWITGLIVRGYRQPLEGSDLWSLNKEDTSEQVVPVLVKNWKKECAKTRKQPVKVVYSSKDPAQPKESSKVDANEEVEALIVKSPQKEWNPSLFKVLYKTFGPYFLMSFFFKAIHDLMMFSGPQILKLLIKFVNDTKAPDWQGYFYTVLLFVTACLQTLVLHQYFHICFVSGMRIKTAVIGAVYRKALVITNSARKSSTVGEIVNLMSVDAQRFMDLATYINMIWSAPLQVILALYLLWLNLGPSVLAGVAVMVLMVPVNAVMAMKTKTYQVAHMKSKDNRIKLMNEILNGIKVLKLYAWELAFKDKVLAIRQEELKVLKKSAYLSAVGTFTWVCTPFLVALCTFAVYVTIDENNILDAQTAFVSLALFNILRFPLNILPMVISSIVQASVSLKRLRIFLSHEELEPDSIERRPVKDGGGTNSITVRNATFTWARSDPPTLNGITFSIPEGALVAVVGQVGCGKSSLLSALLAEMDKVEGHVAIKGSVAYVPQQAWIQNDSLRENILFGCQLEEPYYRSVIQACALLPDLEILPSGDRTEIGEKGVNLSGGQKQRVSLARAVYSNADIYLFDDPLSAVDAHVGKHIFENVIGPKGMLKNKTRILVTHSMSYLPQVDVIIVMSGGKISEMGSYQELLARDGAFAEFLRTYASTEQEQDAEENGVTGVSGPGKEAKQMENGMLVTDSAGKQLQRQLSSSSSYSGDISRHHNSTAELQKAEAKKEETWKLMEADKAQTGQVKLSVYWDYMKAIGLFISFLSIFLFMCNHVSALASNYWLSLWTDDPIVNGTQEHTKVRLSVYGALGISQGIAVFGYSMAVSIGGILASRCLHVDLLHSILRSPMSFFERTPSGNLVNRFSKELDTVDSMIPEVIKMFMGSLFNVIGACIVILLATPIAAIIIPPLGLIYFFVQRFYVASSRQLKRLESVSRSPVYSHFNETLLGVSVIRAFEEQERFIHQSDLKVDENQKAYYPSIVANRWLAVRLECVGNCIVLFAALFAVISRHSLSAGLVGLSVSYSLQVTTYLNWLVRMSSEMETNIVAVERLKEYSETEKEAPWQIQETAPPSSWPQVGRVEFRNYCLRYREDLDFVLRHINVTINGGEKVGIVGRTGAGKSSLTLGLFRINESAEGEIIIDGINIAKIGLHDLRFKITIIPQDPVLFSGSLRMNLDPFSQYSDEEVWTSLELAHLKDFVSALPDKLDHECAEGGENLSVGQRQLVCLARALLRKTKILVLDEATAAVDLETDDLIQSTIRTQFEDCTVLTIAHRLNTIMDYTRVIVLDKGEIQEYGAPSDLLQQRGLFYSMAKDAGLV
  Km: 3.6 µM
